Bridges are numbered along the chain shown (N, C = ends). [ ]: non-standard residue; d: D form. Pra = C#CC[C@H](N)C(=O)O
B1: P2-15 (peptide)
peptide: H-DPCTWEVWGRECGG[Pra]G-NH2
modifications: disulfide 3-12
SMILES: C#CC[C@H](NC(=O)CNC(=O)CNC(=O)[C@@H]1CSSC[C@H](NC(=O)[C@@H]2CCCN2C(=O)[C@@H](N)CC(=O)O)C(=O)N[C@@H]([C@@H](C)O)C(=O)N[C@@H](Cc2c[nH]c3ccccc23)C(=O)N[C@@H](CCC(=O)O)C(=O)N[C@@H](C(C)C)C(=O)N[C@@H](Cc2c[nH]c3ccccc23)C(=O)NCC(=O)N[C@@H](CCCNC(=N)N)C(=O)N[C@@H](CCC(=O)O)C(=O)N1)C(=O)NCC(N)=O
B2: P2-18 (peptide)
peptide: H-DACTWEVWGRECGG[Pra]G-NH2
modifications: disulfide 3-12
SMILES: C#CC[C@H](NC(=O)CNC(=O)CNC(=O)[C@@H]1CSSC[C@H](NC(=O)[C@H](C)NC(=O)[C@@H](N)CC(=O)O)C(=O)N[C@@H]([C@@H](C)O)C(=O)N[C@@H](Cc2c[nH]c3ccccc23)C(=O)N[C@@H](CCC(=O)O)C(=O)N[C@@H](C(C)C)C(=O)N[C@@H](Cc2c[nH]c3ccccc23)C(=O)NCC(=O)N[C@@H](CCCNC(=N)N)C(=O)N[C@@H](CCC(=O)O)C(=O)N1)C(=O)NCC(N)=O
B3: P2-16 (peptide)
peptide: H-CTWEVWGRECLQGG[Pra]G-NH2
modifications: disulfide 1-10
SMILES: C#CC[C@H](NC(=O)CNC(=O)CNC(=O)[C@H](CCC(N)=O)NC(=O)[C@H](CC(C)C)NC(=O)[C@@H]1CSSC[C@H](N)C(=O)N[C@@H]([C@@H](C)O)C(=O)N[C@@H](Cc2c[nH]c3ccccc23)C(=O)N[C@@H](CCC(=O)O)C(=O)N[C@@H](C(C)C)C(=O)N[C@@H](Cc2c[nH]c3ccccc23)C(=O)NCC(=O)N[C@@H](CCCNC(=N)N)C(=O)N[C@@H](CCC(=O)O)C(=O)N1)C(=O)NCC(N)=O
B4: P2-17 (peptide)
peptide: H-CTWEVWGRECGG[Pra]G-NH2
modifications: disulfide 1-10
SMILES: C#CC[C@H](NC(=O)CNC(=O)CNC(=O)[C@@H]1CSSC[C@H](N)C(=O)N[C@@H]([C@@H](C)O)C(=O)N[C@@H](Cc2c[nH]c3ccccc23)C(=O)N[C@@H](CCC(=O)O)C(=O)N[C@@H](C(C)C)C(=O)N[C@@H](Cc2c[nH]c3ccccc23)C(=O)NCC(=O)N[C@@H](CCCNC(=N)N)C(=O)N[C@@H](CCC(=O)O)C(=O)N1)C(=O)NCC(N)=O
B5: P2-19 (peptide)
peptide: H-ACTWEVWGRECGG[Pra]G-NH2
modifications: disulfide 2-11
SMILES: C#CC[C@H](NC(=O)CNC(=O)CNC(=O)[C@@H]1CSSC[C@H](NC(=O)[C@H](C)N)C(=O)N[C@@H]([C@@H](C)O)C(=O)N[C@@H](Cc2c[nH]c3ccccc23)C(=O)N[C@@H](CCC(=O)O)C(=O)N[C@@H](C(C)C)C(=O)N[C@@H](Cc2c[nH]c3ccccc23)C(=O)NCC(=O)N[C@@H](CCCNC(=N)N)C(=O)N[C@@H](CCC(=O)O)C(=O)N1)C(=O)NCC(N)=O
B6: P2-20 (truncation, Table 12) (peptide)
peptide: Ac-ACTWEVWGRECGG[Pra]G-NH2
modifications: disulfide 2-11
SMILES: C#CC[C@H](NC(=O)CNC(=O)CNC(=O)[C@@H]1CSSC[C@H](NC(=O)[C@H](C)NC(C)=O)C(=O)N[C@@H]([C@@H](C)O)C(=O)N[C@@H](Cc2c[nH]c3ccccc23)C(=O)N[C@@H](CCC(=O)O)C(=O)N[C@@H](C(C)C)C(=O)N[C@@H](Cc2c[nH]c3ccccc23)C(=O)NCC(=O)N[C@@H](CCCNC(=N)N)C(=O)N[C@@H](CCC(=O)O)C(=O)N1)C(=O)NCC(N)=O

Target: T1, Fc tagged recombinant human EGFR (rhEGFR-Fc, R&D systems, Cat#344-ER-050) (human, UniProt P00533 25-645)
T1 construct: Bought protein; also called apo-EGFR; not shown: Fc tag
Test: SPR
Description: Surface plasmon resonance (SPR) binding studies were carried out on a Biacore T200 instrument (GE Healthcare). […] The contact time and resulting amount of rhEGFR-Fc capture was varied based on the nature of the analyte, namely whether it was a peptide or nanoparticle.
Peptide binding assays were carried out in 10 mM PBS buffer supplemented with 0.05% surfactant P20 and 5% DMSO by volume, at 25° C. Peptides were injected over the rhEGFR-Fc surface for 60 s, followed by dissociation (buffer injection) for 60 s and regeneration with a 10 s pulse of 3M MgCl₂. A fresh rhEGFR-Fc surface was generated for each concentration of each peptide tested. Peptide binding data was analyzed by fitting to a 1:1 Langmuir kinetic model to obtain the on-rate (kₐ), off-rate (kd) and/or equilibrium binding constant (KD) of the interaction.

KD/P2 KD	Binder
0.9 ratio	B1
1.6 ratio	B2
2 ratio	B3
0.4 ratio	B4
2.4 ratio	B5
3 ratio	B6
